This note sets out measurements from the supplement of paper PMC12042874.

± gives the uncertainty stated by the source.

The nature of this data set: amyloid nucleation score (Sup35N fusion, yeast selection) (log enrichment); library NNK1; higher = more nucleation; inactive = no reads after selection. The essentials: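 On medium lacking adenine and uracil, psi-negative yeast expressing peptides of 20 random codons fused to Sup35N were grown 7 days at 30°C after a 24-hour induction with 100 μM copper sulfate. Illumina sequencing of input and output plasmid inserts gave the reads, and sequences under 100 input reads were excluded. The nucleation score is the DiMSum log enrichment of output over input reads, centred on the mode score of non-aggregating sequences.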
DCPSS gave an amyloid nucleation score of 0.537 ± 0.29.
Take DCQVAVPLRIVKANSVILCG: the amyloid nucleation score stood at 0.26 ± 0.37.
For the substance DDCRMYAFL, the amyloid nucleation score is 0.776 ± 0.36.
For DDFAMLE the value was “inactive”; for DDRLLCI, -1.85 ± 2.1; for DDSFVLFW, -0.042 ± 0.55.
The same measure for DDWAGLKFSYLWSVCCKWWD: 2.52 ± 0.15; for DEITLMLA: 0.155 ± 0.35; for DERNACLSSFGVNLRLIKLS: -0.002 ± 0.4.
The same measure for DFFGWTNRNHQNSDSFLWDG: 0.69 ± 0.41.
DFGLCHAQNSITQAPDR showed an amyloid nucleation score of -0.153 ± 0.93.
For DFKVAL the value was -0.644 ± 0.35; for DFLKGLFIRFRKSNFE, -1.11 ± 1.7.
For DFPVAIVDLRVCWSYLL the value was 0.526 ± 0.68; for DFSSNDGWV, 0.444 ± 0.47; for DFTVA, 0.596 ± 0.78.
The same measure for DFVMLEV: -0.594 ± 0.68; for DFVRRSNRYRYIVKIV: 0.203 ± 0.39; for DFYNETVTFFTHKIVINNWT: 2.17 ± 0.31.
Turning to DGGICYD, the amyloid nucleation score was 0.733 ± 0.31.
The same measure for DGGLCFLSMTTIIGGDTLDR: 0.018 ± 0.34; for DGLLTGLQDRPNSSRFKYVM: 0.421 ± 0.33.
For DGLTLFLSRNGDYYSFTKIT the value was 0.197 ± 0.46; for DGMVALYVGYATSLVTWAK, 0.65 ± 0.56.
Turning to DGTNAYV, the amyloid nucleation score is -0.986 ± 0.56.
With DHGFLGE, the amyloid nucleation score was -0.172 ± 0.76.
For the substance DHHQGMM, the amyloid nucleation score was -0.213 ± 1.2.
DHVDYSILNYSPMFDCVKFC showed an amyloid nucleation score of 0.028 ± 0.27.
For DHWSASIVIPVWSERNNSFG the value was -0.373 ± 1.4; for DHYYVVAFFRQLWRCCLFRV, “inactive”.
For the substance DIGHFHGTDMGCNIF, the amyloid nucleation score result is “inactive”.
The same measure for DIITFHYLRTARLKGRYLFI: “inactive”; for DIIWMFWRIINSPFFTQSVV: -0.176 ± 0.26.
Substance DIKYECIS yielded an amyloid nucleation score of 0.204 ± 0.34.
The same measure for DKAFLWQFEELVAA: -0.331 ± 0.72.
The same measure for DKEMECIYEYAL: 0.523 ± 0.55.
For DKFLRWVNNVCFKSWTAIAP the value was 0.609 ± 0.57; for DKHSLKILYKCGHPSTDNGQ, 1.51 ± 0.5; for DKLKLNRVRSSISSYNKQNK, 1.06 ± 0.28.
In turn, DKPFCFILNYNSVYDCVMSV registered an amyloid nucleation score of 0.331 ± 1.2.
The same measure for DKTECDQCIKSG: -0.691 ± 0.42; for DKVMGRTQLTTCQYATGRCR: 0.406 ± 0.3.
The same measure for DLFLRYSLAGYYAMESPADS: 0.331 ± 0.33.
The same measure for DLFYINIVMKSFVHWVNHLH: 0.416 ± 0.28.
Consider DLLFAIMMS, for which the amyloid nucleation score was -0.631 ± 1.2.
With DLQSSSDNLLGYMCFSCCKH, the amyloid nucleation score was -0.463 ± 0.98.
Take DLSFLRNCSLYSLLGVIG: the amyloid nucleation score result is “inactive”.
The same measure for DLSSRFGRVETERGGKVKCQ: -0.299 ± 1.1.
Substance DLTGKVRYQSVLPFVASPSM gave an amyloid nucleation score of 0.11 ± 0.62.
For DLVAVQESWTLYSLVPQLFY the value was -0.103 ± 0.4; for DLYGRLLNWNTPYKRRWKNR, -0.491 ± 0.46.
For DLYQCVHPMFHVWVCVTAGW the value was “inactive”; for DMCLWARG, 0.732 ± 1; for DMDTQEFLYCSSVKFGSTKD, 5.408 ± 0.047.
For DMHLMSGDLGMRVRPGGSAV the value was 0.371 ± 0.7.
For DMPFSDFMN, the amyloid nucleation score is -0.096 ± 0.47.
For DMRYSRSCYTGCTDYYTCLG, the amyloid nucleation score was -0.546 ± 0.4.
As to DNAYDRVGTQGSAWFCGDCL, the amyloid nucleation score is -0.655 ± 0.64.
DNDSWYKYPCFWLCYFPACN showed an amyloid nucleation score of 5.17 ± 0.052.
The same measure for DNNLGLSWLSILAGFGH: -1.23 ± 0.91; for DNRLEYSAGLVRVTRDAKGE: -0.106 ± 0.97.
Consider DNTSCLW, for which the amyloid nucleation score entry was “inactive”.
Regarding DNVCRYGRKCWKRERESGQT, the amyloid nucleation score amounted to 0.105 ± 0.42.
For DNWSMDVLFLWMASLGNKYR the value was “inactive”; for DNYGCYCL, 0.802 ± 0.72; for DPFAHYISVYRDSHSVYLSS, “inactive”.
The same measure for DPGVNALVLLILKTWDRDYE: -0.638 ± 0.69.
On to DPPTL, for which the amyloid nucleation score is 0.409 ± 0.42.
The same measure for DQIGDYLRFACSDKDYS: 0.039 ± 0.76; for DQVQGFISFLMLFKDFVSYG: -0.028 ± 0.33; for DRFLCGWSLPSC: -0.656 ± 0.61.
For the substance DRGMMCALVFYRHL, the amyloid nucleation score stood at 0.691 ± 0.56.
On to DRRYVKLLRLYCCILECTKV, for which the amyloid nucleation score was -0.18 ± 0.38.
DRSRVLSSGETGYDIEVGQS yielded an amyloid nucleation score of -0.033 ± 0.45.
In the case of DRVLAVVYAAFAGFRRCMRR, the amyloid nucleation score result was “inactive”.
The same measure for DRWLSM: -0.025 ± 0.51.
For DRYSNTTFNHIA, the amyloid nucleation score amounted to 0.779 ± 0.47.
Consider DSASL, for which the amyloid nucleation score came to 0.514 ± 0.79.
For DSCVFARSIVVNSNSFEVIE the value was 0.061 ± 0.47.
The same measure for DSFARYVGVLKRLARLSTYR: 0.568 ± 0.72.
The same measure for DSGVAVQMFEQTTGDPGIEG: -0.883 ± 0.76; for DSRCHSSSGDRPTLAVYT: -0.198 ± 1.7; for DSRYYTDADALVDR: “inactive”.
In turn, DSSLEVRRNRTSRLYAHFT yielded an amyloid nucleation score of -0.218 ± 0.39.
The same measure for DSTDSVESEWNTVRSYVSLW: “inactive”; for DSVVCRKYDVIGKCQRRGTC: 0.716 ± 0.61; for DSWLVAESSIHAF: -0.049 ± 1.5.
The same measure for DSYWILSLLWGL: -0.369 ± 0.19; for DTAFMNMMLWARNYCWFSVQ: “inactive”.
The same measure for DTAWNLVQSVS: 0.496 ± 0.7; for DTENPSYMNVNCYWRLLFSR: 0.669 ± 0.4.
On to DTGGLYLERARQFKASMFLR, for which the amyloid nucleation score was 0.229 ± 0.42.
As to DTLHSNCCGSWPYDSSKRNV, the amyloid nucleation score came to 0.95 ± 0.33.
The same measure for DVMRYWVMRVVMPAKFKKAY: -0.244 ± 1.1.
Substance DVSRQFYFDYYNIKGLNITK returned an amyloid nucleation score of 0.536 ± 0.79.
The same measure for DVWKAGSVGPRQLVRRGGRR: 0.259 ± 0.81; for DVYTLMGEVDELRSFRIIIR: -0.458 ± 0.27.
In the case of DWCYYKRADRRTSSESSRAG, the amyloid nucleation score is 0.333 ± 0.99.
Substance DWLMMDLL showed an amyloid nucleation score of 0.103 ± 1.1.
For DWMFCTYCVTVFESQNVAVH the value was 0.272 ± 0.27; for DWNEEACV, 0.432 ± 0.57; for DWNYKFMGRRLEHMCQVLM, -1.03 ± 1.1.
Take DYDIWDAMPAQFQRITMYSV: the amyloid nucleation score was -0.243 ± 0.36.
The same measure for DYEPLASDAREEDFCNARRG: -0.677 ± 0.64; for DYFWSSSEGWPEFQNIKSIG: -0.07 ± 1.4.
For DYGAKDHFPIAITKEVMSLN the value was -0.394 ± 1.2; for DYMDSCGYVDSATRYKVSEM, -0.241 ± 1.1; for DYPPIRALVSFDCCAVSTCL, 0.922 ± 0.93.
The same measure for DYPRSIILCWHF: -1.39 ± 0.74.
As for DYSSSFVNCIYKKPGQGMFG, the amyloid nucleation score stood at 0.133 ± 0.54.
The same measure for DYSVYRSERMCTLRAS: -0.279 ± 0.36.
On to DYTLMRSLESPITDLQSSSG, for which the amyloid nucleation score came to 0.748 ± 0.88.
For EALLWTEGMWHSSGGLYSNV the value was 0.261 ± 0.27.
The same measure for EANCLFEWSMMLRYSARDGT: 0.312 ± 1.4.
The same measure for EAVVRRLSEDSCMELSSDCR: 0.485 ± 0.52.
In the case of EAYFFEFIKYLSAPAGSGGN, the amyloid nucleation score was -0.855 ± 0.98.
The substance ECFSKFLNLRGSPLG returned an amyloid nucleation score of -0.098 ± 0.53.
For ECYGIR the value was 0.893 ± 0.26.
The same measure for EDPVLSREGCKQVNPWILWG: 0.201 ± 1.4; for EDRDTLKGM: 0.806 ± 0.57.
On to EELTAYMSLDMQLCRNRAAM, for which the amyloid nucleation score is 0.055 ± 0.55.
The substance EFGRDNHVLVLWMGRAPSDM returned an amyloid nucleation score of -0.436 ± 0.55.
For EFKTDPDYT the value was 0.2 ± 0.53; for EFRQMVVSSGSDERGERDKG, 0.052 ± 0.29; for EFWWIDICSGCYLFF, 6.5 ± 0.074.
EFYVTCFCVRMKTKAYAPLV had an amyloid nucleation score of 0.106 ± 0.31.
As for EGIHKR, the amyloid nucleation score is 0.324 ± 0.66.
As for EGIIYS, the amyloid nucleation score is -0.692 ± 1.1.
Substance EGMYC gave an amyloid nucleation score of 0.058 ± 0.34.
As for EHFMSTCKPPDGE, the amyloid nucleation score turned out to be 0.927 ± 0.84.
For EHGERAQGPISGMLGRKCIE the value was 1.04 ± 0.98; for EHHGGISGGNKCCSTCKSRR, 0.361 ± 1; for EHLVHLYKFSSAFERVGW, -0.352 ± 0.7.
For EHSFRNRCEAANWLVWLRVI the value was -0.061 ± 0.51; for EIDNLHWVLVVNYPTSQFKR, -0.02 ± 0.39.
The same measure for EIVVIASRTASPDFIN: 1.01 ± 0.74.
The substance EKRRNNTSNRSWSGSYFLDT gave an amyloid nucleation score of 0.111 ± 0.28.
For EKSCATRLA the value was 0.374 ± 0.29.
The substance ELASSLIVFVDFSRACELNL showed an amyloid nucleation score of 4.95 ± 0.12.
For ELKPKAFVVLSDHRHGYKRQ the value was -0.076 ± 0.97; for ELNDVMRSGSKG, 0.992 ± 1.
